We go through 25 molecules from US20060253917A1 (published 2006).

Assay [1] addresses T1, OsGF14-c aa 1-150 (Oryza sativa, UniProt Q6ZKC0 1-150).
T1 construct: bait, Gal4 DBD fusion; also called PN12464; O. sativa 14-3-3 Protein Homolog GF14-c
T1 sequence: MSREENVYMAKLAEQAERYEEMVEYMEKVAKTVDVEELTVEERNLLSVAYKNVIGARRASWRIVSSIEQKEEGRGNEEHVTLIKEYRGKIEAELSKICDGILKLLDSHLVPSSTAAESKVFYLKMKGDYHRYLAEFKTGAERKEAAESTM
As to the kind of experiment: Y2H; input trait library. Summed up: (§1)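 Myriad Genetics Inc. (Salt Lake City, Utah) supplied the automated, high-throughput yeast two-hybrid assay used to detect protein-protein interactions. A bait clone encoding a defined amino-acid fragment of a rice protein was screened against a rice prey library, either the input trait or the output trait library. To identify the interacting proteins, prey clones were retrieved and their encoding sequences were compared against databases by BLAST.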

Assay [2] has as its target T2, OsCS aa 316-583 (Oryza sativa, UniProt A2Y0X2 316-583).
T2 construct: bait, Gal4 DBD fusion; also called PN19707
T2 sequence: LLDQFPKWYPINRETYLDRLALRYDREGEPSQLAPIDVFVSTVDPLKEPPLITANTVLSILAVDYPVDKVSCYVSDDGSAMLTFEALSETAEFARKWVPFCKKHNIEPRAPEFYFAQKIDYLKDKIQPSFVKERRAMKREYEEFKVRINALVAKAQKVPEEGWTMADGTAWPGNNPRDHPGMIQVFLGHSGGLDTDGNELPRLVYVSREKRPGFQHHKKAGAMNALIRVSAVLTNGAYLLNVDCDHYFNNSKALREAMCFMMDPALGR
As to the kind of experiment: Y2H; output trait library. Summed up:
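Rice protein fragments, each defined by an amino-acid range, served as bait against rice prey clone libraries in an automated, high-throughput yeast two-hybrid screen supplied by Myriad Genetics Inc. Prey clones that interacted were retrieved from the output trait library. The sequences encoding the retrieved fragments were compared against databases by BLAST analysis to identify the full-length genes. Each value records whether an interaction was detected.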

Assay [3] concerns the target T3, OsERP (PN20696) aa 50-145 (Oryza sativa, UniProt Q0JBH9 50-144).
T3 construct: bait, Gal4 DBD fusion; also called Elicitor responsive protein
T3 sequence: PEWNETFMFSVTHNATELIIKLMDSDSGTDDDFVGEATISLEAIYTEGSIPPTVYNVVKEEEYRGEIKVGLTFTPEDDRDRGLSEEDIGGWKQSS
Description: Y2H; input trait library. A digest of the protocol: as §1

Ends that are not written are not given here.

B1: OsRCAA1 aa 68-210 (other)
chain: DISDDQQDITRGKGFVDSLFQAPTGDGTHEAVLSSYEYLSQGLRTYDFDNTMGGFYIAPAFMDKLVVHISKNFMTLPNIKVPLILGIWGGKGQGKSFQCELVFAKMGINPIMMSAGELESGNAGEPAKLIRQRYREAADIIKK
notes: prey, AD fusion; also called PN19842; O. sativa Ribulose Bisphosphate Carboxylase/Oxygenase Activase, Large Isoform A1
Turning to B1, the binding result in assay [1] is recorded as “binds”.

B2: OsPN23061 aa 94-203 (other)
chain: VITWTSPKEQVFEMPTGGAAIMREGPNLLKLARKEQCLALGTRLRSKYKINYQFYRVFPNGEVQYLHPKDGVYPEKVNAGRQGVGQNFRSIGKNVSPIEVKFTGKNVFDI
notes: prey, AD fusion; also called Hypothetical Protein OsContig3864, Similar to H. vulgare Photosystem I Reaction Center Subunit II, Chloroplast Precursor
With B2, the binding result in assay [1] is “binds”.

B3: OsPN30974 aa 38-178 (other)
chain: GGYDHPGLIPGLPDEISLQILARMPRMGYLNAKMVSRSWKAAITGVELYRVRKELGVSEEWLYMLTKSDDGKLVWNAFDPVCGQWQRLPLMPGISHGGECKRGIPGLWLGDLLSAGIRVSDVIRGWLGQRDSLDRLPFCGC
notes: prey, AD fusion; also called Novel Protein PN30974
On to B3, for which the binding result in assay [1] is given as “binds”.

B4: OsAAB53810 aa 6-145 (other)
chain: IGPWGGNGGSAQDISVPPKKLLGVTIYSSDAIRSIAFNYIGVDGQEYAIGPWGGGESTSTEIKLGSSEQIKEISGTHGPVYDLADIVTYLKIVTSANNTYEAGVPNGKEFSIPLQDSGHVVGFFGRSGTLIDAIGIYVHP
notes: prey, AD fusion; also called PN29086; O. sativa salT Gene Product
Regarding B4, in assay [2], the binding result is listed as “binds”.

B5: OsPN22874 aa 1-88 (other)
chain: GTNPGFRVGEIRLSNRDIYFGTLLGNTPEGSGRYVWSDGCTYDGEWRRGMRHGQGKTMWPSGATYEGEYSGGYIYGEGTYTGSDNIVY
notes: prey, AD fusion; also called Novel Protein 22874, Fragment, similar to Arabidopsis Putative Phosphatidylinositol-4-phosphate 5-kinase
As to B5, the binding result in assay [1] is “binds”.

B6: OsPN23059 aa 193-333 (other)
chain: DGIDYAAVTVQLPGGERVPFLFTIKNLVATGKPESFGGPFLVPSYRGSSFLDPKGRGGSTGYDNAVALPAGGRGDEEELAKENVKNASSSTGNITLSVTKSKPETGEVIGVFESVQPSDTDLGAKVPKDVKIQGVWYAQLE
notes: prey, AD fusion; also called OsContig4331, O. sativa Putative 33 kDa Oxygen-Evolving Protein of Photosystem II
Consider B6, for which the binding result in assay [1] is reported as “binds”.

B7: PN29983 aa 1-131 (other)
chain: GVETVVTDTAGNKVVVTGAADAAELKERIEARTKKAVQIVSAGAGPPPKKDKEEKKDKDKKGGGDDKKAEKEKGGGGGDKKAEKEKGGGDKPKEEKKAKEPKEETVTLKIRLHCEGCIDRIKRRICKIKGG
notes: prey, AD fusion; also called Novel protein PN29983
With B7, the binding result in assay [3] is listed as “binds”.

B8: PN30868 aa 167-336 (other)
chain: YNELAQLRAGKSSKSKLLIAKFKSPKSLNGWEVDQGSYFPNTFASRFDEGIDASFDFSEAGQAVFSGFVFTRGGYVEISKRLSLPLGSTLDRYDGLLFSVGGNGRSYVVILETGPLADTSQSKKYFARMTTKVGFCRVRVPFSAFRPVNPQDPPLDPFLVHTLTIRFEPK
notes: prey, AD fusion
In the case of B8, the binding result in assay [3] is reported as “binds”.

B9: OsPN22866 aa 95-305 (other)
chain: LLALSDDLVKSNVFIEGVSHKIRRQIEELERAGGVESGALTVDGVPVDTYLTRFVWDEGKYPTMSPLKEIAGSIQSQVSKIEDDMKVRGAEYNNVRSQLNAINRKQTGSLAVRDLSNLVKPEDMVTSEHLVTLLAVVPQYSQKDWLSSYESLDTFVVPRSSKKLYEDNEYALYTVTLFAKVVDNFKVRAREKGFQVRDFEYSSEAQESRKE
notes: prey, AD fusion; also called Novel Protein PN22866, Fragment, Similar to A. Thaliana Vacuolar ATP Synthase Subunit C
Turning to B9, in assay [1], the binding result is listed as “binds”.

B10: OsPN29982 aa 201-300 (other)
chain: SPVVDNADVTETKPQTELPVHVMCAEWSSQKRLKKVQLETLERVYSRTKRPTNTMISSIVQVTSLPRKTIVKWFEDRREQDGVPDHRVAFKRSLSETIAS
notes: prey, AD fusion; also called Novel Protein PN29982
With B10, the binding result in assay [1] is given as “binds”.

B11: OsBAA02730 aa 206-269 (other)
chain: QDNGLVPIVEPEILLDGEHGIDRTFEVAQKVWAETFFYMAENNVMFEGILLKPSMVTPGAECKD
notes: prey, AD fusion; also called PN22832; O. sativa Fructose-Bisphosphate Aldolase, Chloroplast Precursor
As to B11, in assay [1], the binding result is listed as “binds”.

B12: OsPN29076 aa 1-187 (other)
chain: ERDISMVNSYPPSAFDCKGWNSASIFIYESDEEIQCLLDWLRDYDPREKELKDSILQWQRHFCHQSSSPLVDPPISGPKGEQLMELPNTKAAVILEQKYGLQLDQDTSDLPKKRGKKIKLSSEDRTYRCDCLEPVWPSRYHCLTCHETYLISTEFEGHNDGKCSKIHQSPDESRENDEPKVKVTKSD
notes: prey, AD fusion; also called Novel Protein PN29076, Fragment
B12: the binding result in assay [2] is reported as “binds”.

B13: PN30844 aa 1-64 (other)
chain: VAVRKKETRDGAMQTMPSRVQQGAADFEETLFVRCHLYCSGGAGTGKPLRFEPRPFLLSAVAVE
notes: prey, AD fusion; also called Novel protein PN30844
For B13, the binding result in assay [3] was “binds”.

B14: PN29984 aa 5-41 (other)
chain: SSGTTSRPTASRTQQTKGRLTVTISLKAYSPGRTRSG
notes: prey, AD fusion; also called Novel Protein PN29984
As for B14, in assay [3], the binding result is “binds”.

B15: PN30870 aa 1-446 (other)
chain: GEEDEHPHEGRAGVERRRQHVVVLLPPPLAVLEHEVVEDGARDEPARDVGRRRRRHPGEPVGDDGDVDERDPLLLRERPAEQPHRHGQHGAGEEQPHQVAVQAVAAEQPGGADEPPDHRRVERDPVLGARPRAVRVQRLHVADVVDAAQHPPRHRQVHHAGDHRAHQLRRVHAPRRDLHVVPQLEVREERQRVHRADPPVDLEQQVRDRLPRQRVPDHELRDDVVPRLLVGGGLDDADGEGDDEGEGEGEEHPPPRQLHLLPVHERHDQRHGDAADEQHEEPPLRHLLVPPHQLRVHVHLRRRGAHRRPALPPDVPAVEQRHVHDRRREPQEPGPDGDGEQRAQVQLPVALVRRHVEVELPREHLGGVVLLPGRREQLVGEDWELPRVERVELPVAERHDEVDEHDEARGGVGDGRPRRHQRAPVVRRDAGPVQCEGADAEAVVAG
notes: prey, AD fusion; also called Isp-4 like
On to B15, for which, in assay [3], the binding result is reported as “binds”.

B16: PN30843 aa 164-221 (other)
chain: RALQNFTAEELLDGGEKQYQCQRCRKKVVAKKKFTIDKAPYVLTIHLKRFSPFNPREK
modifications: cysteine pairing not given here; also: AD fusion
notes: prey, AD fusion; also called Ubiquitin specific protease-like
For B16, the binding result in assay [3] is reported as “binds”.

B17: PN30857 aa 1-148 (other)
chain: QDTRPLQAQRRRHGGGPQDRQREPSQGDFLRRQREEHPGGEEDRAPHGAGGHAAAGEGRGPRAGEHPQHQGGAAGAVGGGREGGGRAHLLRPRRHRDIGDRVGHTYCLSRLRRIAQNEQPSIHPCPSLAGQVIIRWEFRIGRDNNTFQ
notes: prey, AD fusion; also called Novel protein PN30857
B17: the binding result in assay [3] was “binds”.

B18: OsPIP2A aa 123-290 (other)
chain: RKVSLVRAILYIVAQCLGAICGVGLVNAFPNAYFNRYGGGANTLAAGYSKGTGLAAEIIGTFVLVYTVFSATDPKRNARDSHVPVLAPLPIGFAVFMVHLATIPITGTGINPARSIGAAVIFNNEKAWHNHWIFWVGPFVGAAIAAFYHQYILRAGAIKALGSFRSNA
notes: prey, AD fusion; also called PN29098; O. sativa Aquaporin
B18: in assay [2], the binding result is reported as “binds”.

B19: OsPN30846 aa 1-266 (other)
chain: APRRPSTFLNAVALGNVGAGKSAVLNSLIGHPVLPTGENGATRAPIVVDLQRDPGLSSKSIVLQIDSKSQRVSASSLRHSLQDRLSKGASSGSSRGRVEGINLKLRTSTAPPLKLVDLPGIDQRAVDDPMINEYAGHNDAILLVVIPAMQAADVASSRALRLAKDIDADGTRTVGVISKVDQAEGDAKTIACVQALLLNKGPKNLPDIEWVALIGQSVAIASAQAAGSENSLETAWNAEAETLRSILTGAPKSKLGRIALVDTIAK
notes: prey, AD fusion; also called Novel Protein PN30846
For B19, the binding result in assay [1] is “binds”.

B20: OsPN22858 aa 27-154 (other)
chain: DKPTDGFSSIDEAIGALHEGKFVIAVDDESGDNEGDLVMAATLADPESIAFMIRNGSGIISVGMKEEDLTRLMIPMMSPIAEIEDISAAASTVTVDARVGISTGVSAADRAKTIFTLASPDSKPTDLR
notes: prey, AD fusion; also called Novel Protein 22858, Fragment, similar to Arabidopsis GTP Cyclohydrolase II
For B20, the binding result in assay [1] is “binds”.

B21: PN29984 aa 1-38 (other)
chain: APSSSSGTTSRPTASRTQQTKGRLTVTISLKAYSPGRT
notes: as for B14
With B21, in assay [3], the binding result was “binds”.

B22: OsBAB61062 aa 463-511 (other)
chain: AIDTYDDHRMAMAFSLAACADVPVTIRDPGCTRKTFPNYFDVLSTFVRN
modifications: not fully specified; cysteine pairing not given here
notes: prey, AD fusion; also called PN22844; O. sativa 3-Phosphoshikimate 1-carboxyvinyltransferase (EPSP Synthase)
For the molecule B22, the binding result in assay [1] is “binds”.

B23: OsAAB46718 aa 82-126 (other)
chain: SPEEWSPTGDTYVGGTTGLLIWAVTLAGLLGGGALLVYNTSALAG
modifications: not fully specified
notes: prey, AD fusion; also called PN22840; O. sativa Photosystem II 10 kDa Polypeptide
For B23, in assay [1], the binding result is “binds”.

B24: PN30845 aa 1-64 (other)
chain: GDQGRTYLFRVSNVGVKTSVNVRIQGHSLRLVEVEGTHPVQNVYDSLDVHVGQSVAFLVTLDKA
notes: prey, AD fusion; also called Pectinesterase-like
For the molecule B24, the binding result in assay [3] is “binds”.

B25: OsPN23059 aa 90-169 (other)
chain: PRRLTFDEIQSKTYMEVKGTGTANQCPTVEGGVDSFAFKAGKYNMKKFCLEPTSFTVKAEGVAKNAPPEFQKTKLMTRLT
notes: prey, AD fusion; also called OsContig4331
Regarding B25, the binding result in assay [1] was “binds”.
